B1: Plexin-A4 (Mus musculus), Q80UG2 (parent)
chain: MKAMPWNWTCLLSHLLVVGMGSSTLLPRQPPQLSQKPSFVTFRGEPAEGFNHLVVDERTGHIYLGAVNRIYKLSSDLKVLVTHQTGPDEDNPKCYPPRIVQTCNEPLASTNNVNKMLLIDYKENRLIACGSLYQGICKLLRLEDLFKLGEPFHKKEHYLSGVNESGSVFGVIVSYSNFDDKLFIATAVDGKPEYFPTISSRKLTKNSEADGMFAYVFHDEFVASMIKIPSDTFTVIPDFDIYYVYGFSSGNFVYFLTLQPEMVSPPGSTTKEQVYTSKLVRLCKEDTAFNSYVEVPIGCERNGVEYRLLQAAYLSKAGAVLGRTLGVRPDDDLLFTVFSKGQKRKMKSLDESALCIFILKQINDRIKDRLQSCYRGEGTLDLAWLKVKDIPCSSALLTIDDNFCGLDMNAPLGVSEMVRGIPVFTEDRDRMTSVIAYVYKNHSLAFVGTKSGKLKKIRVDGPKGNALQYETVQVVDSGPVLRDMAFSKDHEQLYIMSERQLTRVPVESCGQYRSCGECLGSGDPHCGWCVLHNTCTRKERCERSREPRRFASEMKQCVRLTVHPNNISVSQYNVLLVLETYNVPELSAGVNCTFEDLSEMDGLVIGNQIQCYSPAAKEVPRIITENGDHHVVQLQLKSKETGMTFASTSFVFYNCSVHNSCLSCVESPYRCHWCKYRHVCTHDPNTCSFQEGRVKLPEDCPQLLRVDKILVPVEVIKPITLKAKNLPQPQSGQRGYECILNIQGIEQRVPALRFNSSSVQCQNTSYSYEGMEINNLPVELTVVWNGHFNIDNPAQNKVYLYKCGAMRESCGLCLKADPDFECGWCQSPGQCTLRQHCPAHESRWLELSGANSKCTNPRITEIIPVTGPREGGTKVTIRGENLGLEFRDIASHVKVAGVECSPLVDGYIPAEQIVCEMGEAKPSQHAGFVEICVAVCRPEFMARSSQLYYFMTLTLADLKPNRGPMSGGTQVTITGTNLNAGSNVVVMFGSQPCLFHRRSPSYIICNTTSSEEVLDMKVTVQVDRARIRQDLVFQYVEDPTIVRIEPEWSIVSGNTPIAVWGTHLDLIQNPQIRAKHGGKEHINICEVLNATEMTCQAPALALGPDHQSDLTERPEEFGFILDNVQSLLILNKTNFTYYPNPVFEAFSPSGILELKPGTPIILKGKNLIPPVAGGNVKLNYTVLVGEKPCTVTVSDVQLLCESPNLIGRHKVMARVGGMEYSPGMVYIAPDSPLSLPAIVSIAVAGGLLIIFIVAVLIAYKRKSRESDLTLKRLQMQMDNLESRVALECKEAFAELQTDIHELTSDLDGAGIPFLDYRTYTMRVLFPGIEDHPVLRDLEVPGYRQERVEKGLKLFAQLINNKVFLLSFIRTLESQRSFSMRDRGNVASLIMTVLQSKLEYATDVLKQLLADLIDKNLESKNHPKLLLRRTESVAEKMLTNWFTFLLYKFLKECAGEPLFSLFCAIKQQMEKGPIDAITGEARYSLSEDKLIRQQIEYKTLVLSCVSPDNVNSPEVPVKILNCDTITQVKEKILDAIFKNVPCSHRPKAADMDLEWRQGSGARMILQDEDITTKIENDWKRLNTVAHYQVPDGSVVALVSKQVTAYNAVNNSTVSRTSASKYENMIRYTGSPDSLRSRTPMITPDLESGVKLWHLVKNHEHGDQKEGDRGSKMVSEIYLTRLLATKGTLQKFVDDLFETIFSTAHRGSALPLAIKYMFDFLDEQADKHGIHDPHVRHTWKSNCLPLRFWVNMIKNPQFVFDIHKNSITDACLSVVAQTFMDSCSTSEHRLGKDSPSNKLLYAKDIPSYKNWVERYYSDIGKMPAISDQDMNAYLAEQSRMHMNEFNTMSALSEIFSYVGKYSEEILGPLDHDDQCGKQKLAYKLEQVITLMSLDS
B2: Neuropilin-1 (Mus musculus), P97333 (parent)
chain: MERGLPLLCATLALALALAGAFRSDKCGGTIKIENPGYLTSPGYPHSYHPSEKCEWLIQAPEPYQRIMINFNPHFDLEDRDCKYDYVEVIDGENEGGRLWGKFCGKIAPSPVVSSGPFLFIKFVSDYETHGAGFSIRYEIFKRGPECSQNYTAPTGVIKSPGFPEKYPNSLECTYIIFAPKMSEIILEFESFDLEQDSNPPGGMFCRYDRLEIWDGFPEVGPHIGRYCGQKTPGRIRSSSGVLSMVFYTDSAIAKEGFSANYSVLQSSISEDFKCMEALGMESGEIHSDQITASSQYGTNWSVERSRLNYPENGWTPGEDSYKEWIQVDLGLLRFVTAVGTQGAISKETKKKYYVKTYRVDISSNGEDWISLKEGNKAIIFQGNTNPTDVVLGVFSKPLITRFVRIKPVSWETGISMRFEVYGCKITDYPCSGMLGMVSGLISDSQITASNQADRNWMPENIRLVTSRTGWALPPSPHPYTNEWLQVDLGDEKIVRGVIIQGGKHRENKVFMRKFKIAYSNNGSDWKTIMDDSKRKAKSFEGNNNYDTPELRTFSPLSTRFIRIYPERATHSGLGLRMELLGCEVEAPTAGPTTPNGNPVDECDDDQANCHSGTGDDFQLTGGTTVLATEKPTIIDSTIQSEFPTYGFNCEFGWGSHKTFCHWEHDSHAQLRWSVLTSKTGPIQDHTGDGNFIYSQADENQKGKVARLVSPVVYSQSSAHCMTFWYHMSGSHVGTLRVKLRYQKPEEYDQLVWMVVGHQGDHWKEGRVLLHKSLKLYQVIFEGEIGKGNLGGIAVDDISINNHISQEDCAKPTDLDKKNTEIKIDETGSTPGYEGEGEGDKNISRKPGNVLKTLDPILITIIAMSALGVLLGAVCGVVLYCACWHNGMSERNLSALENYNFELVDGVKLKKDKLNPQSNYSEA

Variants of: B1
Conditions: with nrp1_mouse Nrp1, P97333

effect of a mutation on the interaction	Variant
with no effect	K343E

Variants of: B2
Conditions: with plxa4_mouse Plxna4, Q80UG2

effect of a mutation on the interaction	Variant
with no effect	S251E
with no effect	A252E
with no effect	H74A
with no effect	E128R
